Source: patent publication CN105367658A (ZHU JIN, dated 2016)

Target: T1, 重组人唾液酸结合免疫球蛋白样凝集素-9蛋白 (human, UniProt Q9Y336 18-348, limits assumed)
T1 construct: Purified recombinant protein coated on ELISA plates and (as 'antigen') coupled to the CM5 chip; also called recombinant human Siglec-9; Siglec9蛋白
Test: SPR (Biacore X100), antigen coupled to CM5 chip, analyte 0-80 nM

T1 sequence (Q9Y336 18-348 limits assumed): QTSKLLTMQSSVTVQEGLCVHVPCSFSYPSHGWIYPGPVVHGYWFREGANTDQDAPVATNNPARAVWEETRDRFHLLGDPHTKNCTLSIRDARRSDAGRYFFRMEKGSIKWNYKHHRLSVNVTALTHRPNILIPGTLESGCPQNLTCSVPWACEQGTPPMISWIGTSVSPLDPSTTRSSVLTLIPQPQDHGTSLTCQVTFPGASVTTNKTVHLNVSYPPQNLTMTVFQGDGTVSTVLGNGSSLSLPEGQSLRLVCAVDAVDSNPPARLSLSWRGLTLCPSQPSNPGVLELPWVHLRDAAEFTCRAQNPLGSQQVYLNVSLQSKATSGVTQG

B1: 人源抗唾液酸结合免疫球蛋白样凝集素-9抗体IgG (antibody, V domains shown)
VH: EVQLVESGAEVKKPGASVKVSCKASGYIFTGYYMHWVRQAPGQGLEWMGWINPKSGGTNYAQKFQGRVTMTRDTSISTAYMELSRLRSDDTAVYYCVRDLGATGGDYWGQGTLVTVSS
VL: ELVLTQPPSVSVSPGQTARVTCSGDALPKKYAYWYQQKSGQAPILVIYGDNKRPSGIPERFSGSSSGTMATLTISGAQVEDEADYYCYSIDRSGNRVFGGGTRLTVLQ
notes: also called PA21抗体; 抗Siglec-9抗体
- Kd: 0.738 nM
